As usually defined, the Kd is the constant that tells how readily two partners part at equilibrium. In general, IC50 refers to the concentration that inhibits the measured activity by half. As a reminder, the koff is the rate constant with which the complex falls apart. One may read the kon as the second-order rate constant of association.

In assay [1] the target is recombinant human c-Met Fc chimera (human) (UniProt P08581). The assay can be described thus: SPR (ProteOn), c-Met-Fc captured by anti-human Fc.
For assay [2] the target is unchanged. The assay can be described thus: HGF competition (biotinylated HGF on coated c-Met-Fc).
Assay [3] shares this target. Briefly: SPR, serine scan in the context of ECB15.
The target is the same in assay [4]. The assay can be described thus: SPR (ProteOn), protocol of Example 3.

B1: P114AR5P74-A5 (designed binder, not shown: small tags and cut ends)
chain: LPAPKNLVVSRVTEDSARLSWTAPDAAFDSFWIRYDEVVVGGEAIVLTVPGSERSYDLTGLKPGTEYYVNILGVKGGSISVPLSAIFTT
In the case of B1, the Kd in assay [1] amounted to 10.1 nM. Also, the IC50 in assay [2] was found to be 5.2 nM.

B2: P114AR7P95-F10 (designed binder, not shown: small tags and cut ends)
chain: LPAPKNLVVSRVTEDSARLSWTAPDAAFDSFWIRYFEFTTAGEAIVLTVPGSERSYDLTGLKPGTEYVVNIMGVKGGSISPPLSAIFTT
As to B2, the Kd in assay [1] was 4.2 nM. For the same molecule, the IC50 in assay [2] was determined as 1.4 nM.

B3: P114AR7P94-A3 (designed binder, not shown: small tags and cut ends)
chain: LPAPKNLVVSRVTEDSARLSWTAPDAAFDSFWIRYFEFLGSGEAIVLTVPGSERSYDLTGLKPGTEYVVNIMGVKGGKISPPLSAIFTT
As for B3, the Kd in assay [1] came to 0.4 nM. The IC50 in assay [2] came to 0.2 nM.

B4: P114AR7P95-H8 (designed binder, not shown: small tags and cut ends)
chain: LPAPKNLVVSRVTEDSARLSWTAPDAAFDSFWIRYFEFVSKGEAIVLTVPGSERSYDLTGLKPGTEYVVNIMGVKGGSISPPLSAIFTT
Take B4: the Kd in assay [1] turned out to be 3.7 nM.

B5: P114AR7P92-G8 (designed binder, not shown: small tags and cut ends)
chain: LPAPKNLVVSRVTEDSARLSWTAPDAAFDSFVIRYFEFLGSGEAIVLTVPGSERSYDLTGLKPGTEYVVQILGVKGGYISIPLSAIFTT
Consider B5, for which, in assay [1], the Kd turned out to be 1 nM. The IC50 in assay [2] was 1.6 nM.

B6: P114AR7P95-G7 (designed binder, not shown: small tags and cut ends)
chain: LPAPKNLVVSRVTEDSARLSWTAPDAAFDSFWIRYFELLSTGEAIVLTVPGSERSYDLTGLKPGTEYVVNIMGVKGGSISPPLSAIFTT
For the molecule B6, the Kd in assay [1] is 20 nM.

B7: P114AR5P75-E9 (designed binder, not shown: small tags and cut ends)
chain: LPAPKNLVVSRVTEDSARLSWTAPDAAFDSFFIRYDEFLRSGEAIVLTVPGSERSYDLTGLKPGTEYWVTILGVKGGLVSTPLSAIFTT
Take B7: the Kd in assay [1] was determined as 45.8 nM. In addition, the IC50 in assay [2] is 51.9 nM.

B8: P114AR7P94-E5 (designed binder, not shown: small tags and cut ends)
chain: LPAPKNLVVSRVTEDSARLSWTAPDAAFDSFWIRYFEFLGSGEAIVLTVPGSERSYDLTGLKPGTEYAVNIMGVKGGRVSVPLSAIFTT
For the molecule B8, the Kd in assay [1] was 4.2 nM. Further, in assay [2], the IC50 was found to be 0.7 nM.

B9: P114AR7P95-D4 (designed binder, not shown: small tags and cut ends)
chain: LPAPKNLVVSRVTEDSARLSWTAPDAAFDSFWIRYFEFLGSGEAIVLTVPGSERSYDLTGLKPGTEYVVQILGVKGGYISIPLSAIFTT
In the case of B9, the Kd in assay [1] is 0.4 nM.

B10: P114AR7P92-F6 (designed binder, not shown: small tags and cut ends)
chain: LPAPKNLVVSRVTEDSARLSWTAPDAAFDSFWIRYFEFLGSGEAIVLTVPGSERSYDLTGLKPGTEYVVNILGVKGGGLSVPLSAIFTT
In the case of B10, in assay [1], the Kd is 3.1 nM. Further, in assay [2], the half-inhibitory concentration (IC50) was determined as 2.2 nM.

B11: P114AR7P92-H5 (designed binder, not shown: small tags and cut ends)
chain: LPAPKNLVVSRVTEDSARLSWTAPDAAFDSFWIRYLEFLLGGEAIVLTVPGSERSYDLTGLKPGTEYVVQIMGVKGGTVSPPLSAIFTT
For B11, the Kd in assay [1] was 11.6 nM.

B12: A3 K78S (designed binder)
chain: LPAPKNLVVSEVTEDSARLSWDDPWAFYESFLIQYQESEKVGEAIVLTVPGSERSYDLTGLKPGTEYTVSIYGVHNVYKDTNMRGLPLSAIFTTAPAPAPAPAPLPAPKNLVVSRVTEDSARLSWTAPDAAFDSFWIRYFEFLGSGEAIVLTVPGSERSYDLTGLKPGTEYVVNIMGVKGGSISPPLSAIFTT
As to B12, in assay [3], the Fold Change of KD against parent stood at 0.75 fold, the Kd came to 0.3 nM, the koff was 0.00015 s⁻¹ and the kon was 440000 M⁻¹ s⁻¹.

B13: A3 F38S (designed binder)
chain: LPAPKNLVVSEVTEDSARLSWDDPWAFYESFLIQYQESEKVGEAIVLTVPGSERSYDLTGLKPGTEYTVSIYGVHNVYKDTNMRGLPLSAIFTTAPAPAPAPAPLPAPKNLVVSRVTEDSARLSWTAPDAAFDSFWIRYFESLGSGEAIVLTVPGSERSYDLTGLKPGTEYVVNIMGVKGGKISPPLSAIFTT
With B13, in assay [3], the Fold Change of KD against parent amounted to 1790 fold, the dissociation constant (Kd) is 717 nM, the koff was 0.0323 s⁻¹ and the kon came to 45100 M⁻¹ s⁻¹.

B14: A3 W32S (designed binder)
chain: LPAPKNLVVSEVTEDSARLSWDDPWAFYESFLIQYQESEKVGEAIVLTVPGSERSYDLTGLKPGTEYTVSIYGVHNVYKDTNMRGLPLSAIFTTAPAPAPAPAPLPAPKNLVVSRVTEDSARLSWTAPDAAFDSFSIRYFEFLGSGEAIVLTVPGSERSYDLTGLKPGTEYVVNIMGVKGGKISPPLSAIFTT
B14: in assay [3], the Fold Change of KD against parent was 74.5 fold, the Kd was found to be 29.8 nM, the koff turned out to be 0.0086 s⁻¹ and the kon amounted to 289000 M⁻¹ s⁻¹.

B15: A3 N70S (designed binder)
chain: LPAPKNLVVSEVTEDSARLSWDDPWAFYESFLIQYQESEKVGEAIVLTVPGSERSYDLTGLKPGTEYTVSIYGVHNVYKDTNMRGLPLSAIFTTAPAPAPAPAPLPAPKNLVVSRVTEDSARLSWTAPDAAFDSFWIRYFEFLGSGEAIVLTVPGSERSYDLTGLKPGTEYVVSIMGVKGGKISPPLSAIFTT
With B15, in assay [3], the Fold Change of KD against parent stood at 14.8 fold, the equilibrium dissociation constant (Kd) was 5.9 nM, the koff stood at 0.00249 s⁻¹ and the association rate constant (kon) was 425000 M⁻¹ s⁻¹.

B16: A3 V68S (designed binder)
chain: LPAPKNLVVSEVTEDSARLSWDDPWAFYESFLIQYQESEKVGEAIVLTVPGSERSYDLTGLKPGTEYTVSIYGVHNVYKDTNMRGLPLSAIFTTAPAPAPAPAPLPAPKNLVVSRVTEDSARLSWTAPDAAFDSFWIRYFEFLGSGEAIVLTVPGSERSYDLTGLKPGTEYSVNIMGVKGGKISPPLSAIFTT
With B16, in assay [3], the Fold Change of KD against parent came to 9 fold, the Kd was determined as 3.6 nM, the koff came out at 0.0012 s⁻¹ and the kon amounted to 329000 M⁻¹ s⁻¹.

B17: A3 G40S (designed binder)
chain: LPAPKNLVVSEVTEDSARLSWDDPWAFYESFLIQYQESEKVGEAIVLTVPGSERSYDLTGLKPGTEYTVSIYGVHNVYKDTNMRGLPLSAIFTTAPAPAPAPAPLPAPKNLVVSRVTEDSARLSWTAPDAAFDSFWIRYFEFLSSGEAIVLTVPGSERSYDLTGLKPGTEYVVNIMGVKGGKISPPLSAIFTT
B17: in assay [3], the Fold Change of KD against parent was determined as 4.25 fold, the Kd was determined as 1.7 nM, the koff was found to be 0.00032 s⁻¹ and the kon is 185000 M⁻¹ s⁻¹.

B18: A3 P81S (designed binder)
chain: LPAPKNLVVSEVTEDSARLSWDDPWAFYESFLIQYQESEKVGEAIVLTVPGSERSYDLTGLKPGTEYTVSIYGVHNVYKDTNMRGLPLSAIFTTAPAPAPAPAPLPAPKNLVVSRVTEDSARLSWTAPDAAFDSFWIRYFEFLGSGEAIVLTVPGSERSYDLTGLKPGTEYVVNIMGVKGGKISSPLSAIFTT
As to B18, in assay [3], the Fold Change of KD against parent amounted to 4.25 fold, the Kd was 1.7 nM, the koff amounted to 0.000536 s⁻¹ and the kon was determined as 321000 M⁻¹ s⁻¹.

B19: A3 L39S (designed binder)
chain: LPAPKNLVVSEVTEDSARLSWDDPWAFYESFLIQYQESEKVGEAIVLTVPGSERSYDLTGLKPGTEYTVSIYGVHNVYKDTNMRGLPLSAIFTTAPAPAPAPAPLPAPKNLVVSRVTEDSARLSWTAPDAAFDSFWIRYFEFSGSGEAIVLTVPGSERSYDLTGLKPGTEYVVNIMGVKGGKISPPLSAIFTT
With B19, in assay [3], the Fold Change of KD against parent stood at 6.75 fold, the equilibrium dissociation constant (Kd) stood at 2.7 nM, the koff came to 0.00127 s⁻¹ and the kon was 475000 M⁻¹ s⁻¹.

B20: A3 F36S (designed binder)
chain: LPAPKNLVVSEVTEDSARLSWDDPWAFYESFLIQYQESEKVGEAIVLTVPGSERSYDLTGLKPGTEYTVSIYGVHNVYKDTNMRGLPLSAIFTTAPAPAPAPAPLPAPKNLVVSRVTEDSARLSWTAPDAAFDSFWIRYSEFLGSGEAIVLTVPGSERSYDLTGLKPGTEYVVNIMGVKGGKISPPLSAIFTT
Turning to B20, in assay [3], the Fold Change of KD against parent came out at 68 fold, the Kd is 27.2 nM, the koff amounted to 0.00512 s⁻¹ and the kon came out at 188000 M⁻¹ s⁻¹.

B21: ECB109 (designed binder, not shown: small tags and cut ends)
chain: MLPAPKNLVVSEVTEDSARLSWDDPHAFYESFLIQYQESEKVGEAIVLTVPGSERSYDLTGLKPGTEYTVSIYGVHNVYKDTNIRGLPLSAIFTTAPAPAPAPAPLPAPKNLVVSRVTEDSARLSWTAPDAAFDSFWIRYFEFLGSGEAIVLTVPGSERSYDLTGLKPGTEYVVNILSVKGGSISPPLSAIFTT
B21: the Kd in assay [4] came to 2.1 nM.

B22: ECB94 (designed binder, not shown: small tags and cut ends)
chain: MLPAPKNLVVSEVTEDSARLSWDDPWAFYESFLIQYQESEKVGEAIVLTVPGSERSYDLTGLKPGTEYTVSIYGVHNVYKDTNIRGLPLSAIFTTAPAPAPAPAPLPAPKNLVVSRVTEDSARLSWTAPDAAFDSFWIRYFEFLGSGEAIVLTVPGSERSYDLTGLKPGTEYVVNILGVKGGKISPPLSAIFTT
Consider B22, for which, in assay [4], the dissociation constant Kd was 4.3 nM.

B23: ECB15 (designed binder, not shown: small tags and cut ends)
chain: MLPAPKNLVVSEVTEDSARLSWDDPWAFYESFLIQYQESEKVGEAIVLTVPGSERSYDLTGLKPGTEYTVSIYGVHNVYKDTNMRGLPLSAIFTTAPAPAPAPAPLPAPKNLVVSRVTEDSARLSWTAPDAAFDSFWIRYFEFLGSGEAIVLTVPGSERSYDLTGLKPGTEYVVNIMGVKGGKISPPLSAIFTT
Regarding B23, the Kd in assay [4] came to 2.6 nM.

B24: ECB95 (designed binder, not shown: small tags and cut ends)
chain: MLPAPKNLVVSEVTEDSARLSWDDPWAFYESFLIQYQESEKVGEAIVLTVPGSERSYDLTGLKPGTEYTVSIYGVHNVYKDTNIRGLPLSAIFTTAPAPAPAPAPLPAPKNLVVSRVTEDSARLSWTAPDAAFDSFWIRYFEFVGSGEAIVLTVPGSERSYDLTGLKPGTEYVVNILGVKGGSISPPLSAIFTT
In the case of B24, the Kd in assay [4] came to 6.2 nM.

B25: P114AR7P93-G8 (designed binder, not shown: small tags and cut ends)
chain: LPAPKNLVVSRVTEDSARLSWTAPDAAFDSFWIRYFEFLGSGEAIVLTVPGSERSYDLTDLKPGTEYGVTINGVKGGRVSTPLSAIFTT
On to B25, for which the Kd in assay [1] was determined as 6.9 nM. For the same molecule, the IC50 in assay [2] is 1 nM.

(Values after US20140155325A1 (Janssen / Centocor, published 2014).)
